In US9618524B2, “Method, composition, isolation and identification of a plaque particle and related biomarker” (Plaxgen Inc., priority 2012, dated 2017):

B1: Heparin cofactor 2 (protein)
chain: GSKGPLDQLEKGGETAQSADPQWEQLNNKNLSMPLLPADFHKENTVTNDWIPEGEEDDDYLDLEKIFSEDDDYIDIVDSLSVSPTDSDVSAGNILQLFHGKSRIQRLNILNAKFAFNLYRVLKDQVNTFDNIFIAPVGISTAMGMISLGLKGETHEQVHSILHFKDFVNASSKYEITTIHNLFRKLTHRLFRRNFGYTLRSVNDLYIQKQFPILLDFKTKVREYYFAEAQIADFSDPAFISKTNNHIMKLTKGLIKDALENIDPATQMMILNCIYFKGSWVNKFPVEMTHNHNFRLNEREVVKVSMMQTKGNFLAANDQELDCDILQLEYVGGISMLIVVPHKMSGMKTLEAQLTPRVVERWQKSMTNRTREVLLPKFKLEKNYNLVESLKLMGIRMLFDKNGNMAGISDQRIAIDLFKHQGTITVNEEGTQATTVTTVGFMPLSTQVRFTVDRPFLFLIYEHRTSCLLFMGRVANPSRS
B2: Complement factor I (protein)
chain: KVTYTSQEDLVEKKCLAKKYTHLSCDKVFCQPWQRCIEGTCVCKLPYQCPKNGTAVCATNRRSFPTYCQQKSLECLHPGTKFLNNGTCTAEGKFSVSLKHGNTDSEGIVEVKLVDQDKTMFICKSSWSMREANVACLDLGFQQGADTQRRFKLSDLSINSTECLHVHCRGLETSLAECTFTKRRTMGYQDFADVVCYTQKADSPMDDFFQCVNGKYISQMKACDGINDCGDQSDELCCKACQGKGFHCKSGVCIPSQYQCNGEVDCITGEDEVGCAGFASVTQEETEILTADMDAERRRIKSLLPKLSCGVKNRMHIRRKRIVGGKRAQLGDLPWQVAIKDASGITCGGIYIGGCWILTAAHCLRASKTHRYQIWTTVVDWIHPDLKRIVIEYVDRIIFHENYNAGTYQNDIALIEMKKDGNKKDCELPRSIPACVPWSPYLFQPNDTCIVSGWGREKDNERVFSLQWGEVKLISNCSKFYGNRFYEKEMECAGTYDGSIDACKGDSGGPLVCMDANNVTYVWGVVSWGENCGKPEFPGVYTKVANYFDWISYHVGRPFISQYNV
B3: Complement C1r subcomponent (protein)
chain: SIPIPQKLFGEVTSPLFPKPYPNNFETTTVITVPTGYRVKLVFQQFDLEPSEGCFYDYVKISADKKSLGRFCGQLGSPLGNPPGKKEFMSQGNKMLLTFHTDFSNEENGTIMFYKGFLAYYQAVDLDECASRSKSGEEDPQPQCQHLCHNYVGGYFCSCRPGYELQEDTHSCQAECSSELYTEASGYISSLEYPRSYPPDLRCNYSIRVERGLTLHLKFLEPFDIDDHQQVHCPYDQLQIYANGKNIGEFCGKQRPPDLDTSSNAVDLLFFTDESGDSRGWKLRYTTEIIKCPQPKTLDEFTIIQNLQPQYQFRDYFIATCKQGYQLIEGNQVLHSFTAVCQDDGTWHRAMPRCKIKDCGQPRNLPNGDFRYTTTMGVNTYKARIQYYCHEPYYKMQTRAGSRESEQGVYTCTAQGIWKNEQKGEKIPRCLPVCGKPVNPVEQRQRIIGGQKAKMGNFPWQVFTNIHGRGGGALLGDRWILTAAHTLYPKEHEAQSNASLDVFLGHTNVEELMKLGNHPIRRVSVHPDYRQDESYNFEGDIALLELENSVTLGPNLLPICLPDNDTFYDLGLMGYVSGFGVMEEKIAHDLRFVRLPVANPQACENWLRGKNRMDVFSQNMFCAGHPSLKQDACQGDSGGVFAVRDPNTDRWVATGIVSWGIGCSRGYGFYTKVLNYVDWIKKEMEEED

Legend:
Assay in all cases: Mass spectroscopy proteomics, semi-quantitative binding affinity of serum proteins (plaqueproteome, Table 2)
Details in all cases: higher number = stronger affinity
[1] = biological target: T1, Abeta-42 plaque particles (Homo sapiens, UniProt P05067)
T1 construct: Abeta 1-42
Experimental: Next to isolate serum derived Abeta-42 plaque particles, the plasma or serum samples obtained from AD subjects were first centrifuged at 5,000 rpm for 5 min and the supernatants were transferred to new centrifuge tubes. Next, the supernatants were diluted in PBS to make 50% of the serum and plasma samples and used for incubation with Abeta-42 plaque oligomers/aggregates. Each assay was performed in 1 mL reaction (800 μL of 50% plasma or serum) and 200 μL (30 μg) of the Abeta-42 aggregates and the mixtures were incubated at 37° C. for 1 hr. To the mixture Thioflavin S dye (120 μg) was added and the sample was incubated for additional 30 min at 37° C. After the incubation, the mixture was directly used for sample acquisition using flow cytometer (FACS ARIA II, BD Biosciences, San Jose, Calif.). After initial detection of Abeta-42 plaque particles in the acquisition blot, gates were drawn in fluorescent dot blot to separately sort and isolate fluorescently labeled Abeta-42 particles.
(§1) For preparing trypsin digested peptide sequences, the isolated plaque particles were centrifuged at 10000 rpm for 5 min and the pellet containing plaque particles was resuspended in 100 μl PBS buffer. Stock solutions of digestion buffer (Ammonium Biocarbonate 50 mM), reducing buffer (DDT 100 mM) and alkylation buffer (lodoaceamide 100 mM) were prepared and stored at −20° C. for up to two months. For trypsin digestion, 100 μl of each plaque particles (2000 of Abeta-42, cholesterol, Tau and alpha-synuclein) were precipitated using cold acetone −80° C. by adding 4X's the volume. The samples were placed on dry ice for 10 min with intermittent vortex. Next, the samples were centrifuged at 4° C. at 10000 G for 10 min. Top layer of acetone was carefully removed from the tube with care not to disturb the plaque particles pellet. The samples were speed-vac for 10 min to ensure all acetone has been boiled away. The plaque particles pellet were reconstituted with 15 μl 8M Urea 100 mM Ammonium bicarbonate stock and 20 μl protease max solution. The protease max solution (Promega, Madison, Wis.) was prepared from stock by adding 60 μl 50 mM Ammonium bicarbonate and used for 3 solution digests (20 μl each). […] The tubes were incubated at 55° C. for 30 minutes. The tubes were then removed and brought to the room temperature followed by addition of 3.2 μl of 1M acrylamide and incubated at room temperature for 30 minutes. To the sample, 63 μL of 50 mM Ammonium bicarbonate was added for a final volume of 98 μl and 2 μl of trypsin (10 μg, Trypsin/Lys C Mix). After mixing the solution with pipet the samples were incubated at 37° C. overnight. After the overnight digest, the tryptic digest were quenched and acidified by adding 10 μl of 50% formic acid/water stock dilution. The samples were centrifuged at 10000 G for 2 minutes and purified using stage tip and used for MS/Mass analysis.
(§2) All MS/MS samples were analyzed using Sequest (Thermo Fisher Scientific, San Jose, Calif., USA; version 1.0). Sequest was set up to search the SUMS_uniprot_Human database (35847 entries) assuming the digestion enzyme strict trypsin. Sequest was searched with a fragment ion mass tolerance of 1.00 Da and a parent ion tolerance of 20 PPM. Propionamide of cysteine was specified in Sequest as a fixed modification. Oxidation of methionine and phospho of serine, threonine and tyrosine were specified in Sequest as variable modifications.
Scaffold (version Scaffold_4.2.1, Proteome Software Inc., Portland, Oreg.) was used to validate MS/MS based peptide and protein identifications. […] Protein probabilities were assigned by the Protein Prophet algorithm (Nesvizhskii, Al et al 2003). […] Proteins sharing significant peptide evidence were grouped into clusters. Proteins were annotated with GO terms from NCBI (downloaded Jan. 17, 2014).

[2] = system: High Density cholesterol (Chl Large) plaque particles; design: species or system human
Experimental: (§3) The goal was to isolate plaque particles synthesized in the bio-fluids in a relatively pure form to enable their subsequent use for identification of components that contribute to the plaque formation. In order to isolate cholesterol plaque particles, the plasma or serum samples obtained from atherosclerotic subjects were first centrifuged at 5,000 rpm for 5 min and the supernatants were transferred to new centrifuge tubes. Next, the supernatants were diluted in PBS to make 50% of the serum and used for incubation with cholesterol oligomers/aggregates. Each assay was performed in 1 mL reaction (800 μL of 50% plasma or serum) and 200 μL (30 μg) of the Cholesterol aggregates and the mixtures were incubated at 37° C. for 1 hr After the incubation, the mixture was directly used for sample acquisition using flow cytometer (FACS ARIA II, BD Biosciences, San Jose, Calif.). […] In order to isolate these fractions, three sets of gates were drawn in the acquisition blot to separately sort and isolate High density or high complex cholesterol particles, Low density or low complex cholesterol particles and both High and low density cholesterol particles together.
as §1, §2
(§4) Scaffold (version Scaffold_4.2.1, Proteome Software Inc., Portland, Oreg.) was used to validate MS/MS based peptide and protein identifications. […] Protein probabilities were assigned by the Protein Prophet algorithm (Nesvizhskii, Al et al 2003).

[3] = system: Low density cholesterol (Chl small) plaque particles; design: species or system human
Experimental: as §3, §1, §2, §4

[4] = biological target: T2, alpha-synuclein plaque particles (Homo sapiens, UniProt P37840)
T2 construct: 140 amino acids polypeptide
Experimental: To prepare oligomers/aggregates of human alpha-synuclein (140 amino acids polypeptide), 1 mg of the recombinant alpha-synuclein protein was suspended in 1 mL of PBS and the sample was incubated at 37° C. for 2 hrs. After incubation, all the samples were centrifuged for 5 min. at 5000 rpm to remove precipitate, if any, and the supernatant containing oligomers/aggregates were used in vitro plaque particles formation assay. For detecting alpha-synuclein plaque particles Thioflavin S (Ex/Em=430 nm/550 nm) amyloid binding fluorescent dye (10 μg) was used.
Similarly, to isolate alpha-synuclein plaque particles, diluted plasma or serum samples obtained from AD subjects were used for incubation with alpha-synuclein plaque oligomers/aggregates. Each assay was performed in 1 mL reaction (800 μL of 50% plasma or serum) and 200 μL (30 μg) of the alpha-synuclein aggregates and the mixtures were incubated at 37° C. for 1 hr. To the mixture Thioflavin S dye (120 μg) was added and the sample was incubated for additional 30 min at 37° C. After the incubation, the mixture was directly used for sample acquisition using flow cytometer (FACS ARIA II, BD Biosciences, San Jose, Calif.). After initial detection of alpha-synuclein plaque particles, gates were drawn in the acquisition blot to separately sort and isolate fluorescently labeled alpha-synuclein particles.
as §1, §2
Scaffold (version Scaffold_4.2.1, Proteome Software Inc., Portland, Oreg.) was used to validate MS/MS based peptide and protein identifications.

Tau plaque particles = system: Tau plaque particles; design: species or system human
Experimental: For Tau-74 (74-102) (Exon 3/Insert 2 domain) preparation, 1 mg of Tau-74 was suspended in 1 mL of PBS and the sample was incubated at 37° C. for 2 hrs. Similarly for preparing Tau-275 (275-305) (Repeat 2 domain) 1 mg of the peptide was suspended in 1 mL of PBS and the sample was incubated at 37° C. for 2 hrs. After incubation, all the samples were centrifuged for 5 min. at 5000 rpm to remove precipitate, if any, and the supernatant containing oligomers/aggregates were used for in vitro amyloid plaque particles formation assay. For detecting Tau plaque particles, Thioflavin S (Ex/Em=430 nm/550 nm) amyloid binding fluorescent dye (10 μg) was used in the assay.
Next, to isolate Tau plaque particles, as performed for Abeta-42 and Abeta-28 plaque particles isolation, diluted serum samples were used for incubation separately with Tau-45, Tau-74 and Tau-275 oligomers/aggregates. Each assay was performed in 1 mL reaction (800 μL of 50% plasma or serum) and 200 μL (30 μg) of each Tau aggregates and the mixtures were incubated at 37° C. for 1 hr. To the each mixture Thioflavin S dye (120 μg) was added and the sample was incubated for additional 30 min at 37° C. After the incubation, each sample was directly used for sample acquisition using flow cytometer (FACS ARIA II, BD Biosciences, San Jose, Calif.). After initial detection of Tau plaque particles, gates were drawn in the acquisition blot to separately sort and isolate fluorescently labeled Tau plaque particles.
as §1, §2

| Molecule | Semi-quantitative analysis of proteins binding to different plaque particles: Abeta-42 [1] | Semi-quantitative analysis of proteins binding to different plaque particles: Chl Large [2] | Semi-quantitative analysis of proteins binding to different plaque particles: Chl small [3] | Semi-quantitative analysis of proteins binding to different plaque particles: Synuclein [4] | Semi-quantitative analysis of proteins binding to different plaque particles: Tau (Tau plaque particles) |
| --- | --- | --- | --- | --- | --- |
| B1 | 0 | 3 | 1 | 1 | 6 |
| B2 | 0 | 4 | 3 | 4 | 3 |
| B3 | 0 | 2 | 4 | 3 | 4 |
